Measured values from patent US20120276102A1 (Pfizer, published 2012).
Changes are numbered by the printed parent chain.

B1: AbP (antibody, human IgG1, V domains shown)
VH: QVQLQESGPGLVKPSETLSLTCAVSGYSISSGYYWGWIRQPPGKGLEWIGSISHTGNTYYNPPLKSRVTISVDTSKNQFSLKLSSVTAADTAVYYCARGGGISRPEYWGQGTLVTVSS
VL: SSELTQDPAVSVALGQTVRITCQGDSLRTYYASWYQQKPGQAPVLVIYGKHKRPSGIPDRFSGSSSGNTASLTITGAQAEDEADYYCVSRSAKGNPHVLFGGGTQLTVL
notes: CDR3 graft, residue limits derived as for m29; also called VHP/VL20; VHPTM/VL20
B2: AbO (antibody, human IgG1, V domains shown)
VH: B1 VH
VL: B1 VL with S89T
notes: CDR3 graft, residue limits derived as for m29; also called VHP/VL16; VHPTM/VL16
B3: AbR (antibody, human IgG1, V domains shown)
VH: B1 VH with G99F, G100M, I102F, S103G
VL: B1 VL with S89T, A92V
notes: CDR3 graft, residue limits derived as for m29; also called VH3/VL18; VH3DM/VL18
B4: AbS (antibody, V domains shown)
VH: B1 VH
VL: B1 VL with V88M, A92I, K93W
notes: CDR3 graft, residue limits derived as for m29; also called VHP/VL6; VHPTM/VL6
B5: AbQ (antibody, human IgG1, V domains shown)
VH: B1 VH with G99F, G100M, I102F, S103G
VL: B1 VL with S89A, A92V, K93V
notes: CDR3 graft, residue limits derived as for m29; also called VH3/VL2; VH3DM/VL2
B6: AbU (antibody, human IgG1, V domains shown)
VH: B1 VH
VL: B1 VL with V88T, S89T, A92N
notes: CDR3 graft, residue limits derived as for m29; also called VHP/VL25; VHPTM/VL25
B7: AbT (antibody, human IgG1, V domains shown)
VH: B1 VH
VL: B1 VL with S89A, A92N
notes: CDR3 graft, residue limits derived as for m29; also called VHP/VL9; VHPTM/VL9
B8: parental 18A5 antibody (antibody, V domains shown)
VH: B1 VH with P14T, Q110K
VL: SSELTQDPPVSVALGQTVTLTCQGDSLRTYYASWYQQKSGQAPILLLYGKHKRPSGIPDRFSGSTSGDTASLTITGAQAEDEADYYCNSRDSSGNPHVLFGGGTQLTVL
notes: also called 18A5 IgG

Target: T1, rat IL-21R expressed on cells (rat)
T1 construct: whole, on cells
Experiment: cell ELISA, CHO cells
Procedure: (§1) A subset of binding proteins was tested for binding to rat, cynomolgus monkey, human IL-21R, or human IL-2R-γ common subunit expressed transiently on the surfaces of CHO-PA-Dukx cells. Cells were transfected 48 hr prior to the assay. On the day of the assay, cells were washed gently 5× in PBS containing 0.9 mM CaCl₂ and 0.45 mM MgCl₂ (PBS/CaMg) on an automated plate washer (Titertek, Huntsville, Ala.), and blocked for 1 hr at RT in PBS/CaMg/5% nonfat dry milk. Conditioned media from transiently expressed anti-IL-21R IgGs were serially diluted in blocking buffer and added to the cells in the blocked plates for 1 hr at RT. Cells were washed 5× with PBS/CaMg and then incubated with horseradish peroxidase-conjugated anti-human IgG for 1 hr at RT. Cells were then washed 10× in PBS/CaMg and all of the wash buffer was removed. Cells were incubated with 100 μl TMB until the color reaction reached saturation, stopped with 100 μl of 0.18 M H₂SO₄, and read at A450 on a Perkin Elmer ENVISION™ plate reader.

Binder | A450 (13 nM Ab) [A450]
B1 | 1.03
B2 | 1.1
B3 | 1.11
B4 | 1.17
B5 | 1.16
B6 | 0.927
B7 | 0.994

Target: T2, human gamma (γ) common chain expressed on CHO cells (human, UniProt P31785 23-369)
T2 construct: whole, on cells; Control protein; also called human IL-2R-γ common subunit; human γ-common
T2 sequence (looked up): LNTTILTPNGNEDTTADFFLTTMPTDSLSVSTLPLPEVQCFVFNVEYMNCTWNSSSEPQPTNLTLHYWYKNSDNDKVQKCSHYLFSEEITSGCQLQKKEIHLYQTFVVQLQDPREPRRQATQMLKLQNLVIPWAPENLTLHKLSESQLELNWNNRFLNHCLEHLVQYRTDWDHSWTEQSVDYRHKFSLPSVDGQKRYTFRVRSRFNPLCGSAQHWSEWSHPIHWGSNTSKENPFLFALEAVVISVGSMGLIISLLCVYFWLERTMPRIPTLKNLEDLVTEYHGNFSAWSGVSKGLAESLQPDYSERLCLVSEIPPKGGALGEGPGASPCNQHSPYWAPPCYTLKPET
Experiment: cell ELISA, CHO cells
Procedure: as §1

Binder | A450 (13 nM Ab) [A450]
B1 | 0.112
B2 | 0.108
B3 | 0.109
B4 | 0.118
B5 | 0.125
B6 | 0.104
B7 | 0.102

Target: T3, human IL-21R expressed on cells (human, UniProt Q9HBE5 20-538)
T3 construct: also called human IL-21R-BaF3; human IL-21R-TF1
Experiment: cell ELISA, CHO cells
Procedure: as §1

T3 sequence (Q9HBE5 20-538 limits assumed): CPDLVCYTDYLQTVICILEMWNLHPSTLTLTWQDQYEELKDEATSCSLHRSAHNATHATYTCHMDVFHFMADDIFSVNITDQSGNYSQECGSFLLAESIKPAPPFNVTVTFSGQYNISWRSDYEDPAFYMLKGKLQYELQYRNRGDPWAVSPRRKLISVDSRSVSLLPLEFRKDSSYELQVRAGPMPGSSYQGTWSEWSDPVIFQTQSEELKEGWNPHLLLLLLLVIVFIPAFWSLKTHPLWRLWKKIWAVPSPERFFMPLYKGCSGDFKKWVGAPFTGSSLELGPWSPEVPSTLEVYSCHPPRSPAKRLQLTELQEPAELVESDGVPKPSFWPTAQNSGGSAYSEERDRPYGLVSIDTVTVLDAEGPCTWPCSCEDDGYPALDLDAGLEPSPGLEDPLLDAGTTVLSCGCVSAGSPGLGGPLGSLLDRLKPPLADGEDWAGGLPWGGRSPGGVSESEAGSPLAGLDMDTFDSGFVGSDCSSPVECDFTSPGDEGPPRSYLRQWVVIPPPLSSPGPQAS

Binder | A450 (13 nM Ab) [A450]
B1 | 1.31
B2 | 1.11
B3 | 1.33
B4 | 1.02
B5 | 1.25
B6 | 1.29
B7 | 1.08

Target: T4, cynomolgus monkey IL-21R expressed on cells (cynomolgus monkey, UniProt G7Q0S8 41-559)
T4 construct: whole, on cells
Experiment: cell ELISA, CHO cells
Procedure: as §1

Binder | A450 (13 nM Ab) [A450]
B1 | 1.31
B2 | 1.36
B3 | 1.35
B4 | 1.22
B5 | 1.31
B6 | 1.31
B7 | 1.22

Target: T3, human IL-21R expressed on cells
Experiment: cell-based or functional assay

Binder | Neutralization of B cell proliferation IC50 [nM]
B8 | 1.86
B3 | 0.22
B4 | 0.44
B5 | 0.16
B6 | 0.13
B7 | 0.14

Target: T5, human IL-2Rβ (human, UniProt P14784 27-239)
T5 sequence (looked up): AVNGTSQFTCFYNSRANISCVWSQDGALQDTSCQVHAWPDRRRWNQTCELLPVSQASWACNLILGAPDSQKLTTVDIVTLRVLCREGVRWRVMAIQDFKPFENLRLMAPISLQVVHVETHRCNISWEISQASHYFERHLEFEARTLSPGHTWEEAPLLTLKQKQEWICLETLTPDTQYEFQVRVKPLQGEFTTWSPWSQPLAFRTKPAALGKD
Experiment: BIACORE: antibody captured on anti-human IgG; 50 nM analyte injected
Procedure: (§2) The specificity of binding of a subset of transiently expressed anti-IL-21R binding proteins (here antibodies) was tested on a BIACORE™ 2000 surface plasmon resonance instrument. Anti-human-IgG, anti-murine immunoglobulin antibodies, and murine IL-21R-H/F were immobilized onto a research-grade carboxymethyl-dextran chip (CM5) using standard amine coupling. The sensor chip surface was activated with EDC/NHS for 7 min at a flow rate of 20 μl/min. The first flow cell was used as reference surface to correct for bulk refractive index, matrix effects, and nonspecific binding. […] Remaining activated groups were blocked with 1.0 M ethanolamine (pH 8.0). The molecular weights of the anti-human IgG and the anti-murine IgG were both 150 kD, and the molecular weight of the IL-21R monomer was 27 kD.
(§3) Conditioned media containing anti-IL-21R antibodies and antibody controls (murine anti-human IL-2Rβ and murine anti-human IL-4R(R&D Systems, Minneapolis, Minn.); human anti-human IL-13 (Wyeth, Cambridge, Mass.)) were diluted in HBS/EP buffer supplemented with 0.2% bovine serum and injected onto all four flow cells of the BIACORE™ chip, capturing 500-700 (RU) of antibody on the species-appropriate capture antibody. Following a 5 sec washing period, 50 nM solutions of a positive control protein (murine IL-21R-H/F), two human proteins related to IL-21R (human IL-2Rβ and human sIL-4R(R&D Systems)), or an unrelated His/FLAG-tagged protein (human IL-13-H/F) were injected over the captured antibodies on the chip. The association and dissociation phases were monitored for 120 and 180 sec, respectively, followed by two 5 μl injections of glycine (pH 1.5) to regenerate a fully active capturing surface. All binding experiments were done at 25° C. in HBS/EP buffer. Blank and buffer effects were subtracted for each sensorgram using double referencing.

Binder | binding result
B1 | no binding (tested: 50 nM)
B2 | no binding (tested: 50 nM)
B3 | no binding (tested: 50 nM)
B4 | no binding (tested: 50 nM)
B5 | no binding (tested: 50 nM)
B6 | no binding (tested: 50 nM)
B7 | no binding (tested: 50 nM)

Target: T6, human soluble IL-4R (human, UniProt P24394 26-232, limits assumed)
T6 construct: also called human sIL-4R
Experiment: as above
Procedure: as §2, §3

Binder | binding result
B1 | no binding (tested: 50 nM)
B2 | no binding (tested: 50 nM)
B3 | no binding (tested: 50 nM)
B4 | no binding (tested: 50 nM)
B5 | no binding (tested: 50 nM)
B6 | no binding (tested: 50 nM)
B7 | no binding (tested: 50 nM)

Target: T7, human IL-13-His/FLAG (human, UniProt P35225 35-146, limits assumed)
T7 construct: Unrelated His/FLAG-tagged control; also called human IL-13-H/F
Experiment: as above
Procedure: as §2, §3

T7 sequence (P35225 35-146 limits assumed): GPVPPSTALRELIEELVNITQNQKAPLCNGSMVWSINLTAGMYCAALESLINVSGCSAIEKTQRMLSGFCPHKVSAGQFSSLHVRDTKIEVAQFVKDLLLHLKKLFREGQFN

Binder | binding result
B1 | no binding (tested: 50 nM)
B2 | no binding (tested: 50 nM)
B3 | no binding (tested: 50 nM)
B4 | no binding (tested: 50 nM)
B5 | no binding (tested: 50 nM)
B6 | no binding (tested: 50 nM)
B7 | no binding (tested: 50 nM)

Target: murine IL-21R expressed on cells (murine, UniProt Q9JHX3 20-529)
Experiment: cell-based or functional assay

Chain of murine IL-21R expressed on cells (Q9JHX3 20-529 limits assumed): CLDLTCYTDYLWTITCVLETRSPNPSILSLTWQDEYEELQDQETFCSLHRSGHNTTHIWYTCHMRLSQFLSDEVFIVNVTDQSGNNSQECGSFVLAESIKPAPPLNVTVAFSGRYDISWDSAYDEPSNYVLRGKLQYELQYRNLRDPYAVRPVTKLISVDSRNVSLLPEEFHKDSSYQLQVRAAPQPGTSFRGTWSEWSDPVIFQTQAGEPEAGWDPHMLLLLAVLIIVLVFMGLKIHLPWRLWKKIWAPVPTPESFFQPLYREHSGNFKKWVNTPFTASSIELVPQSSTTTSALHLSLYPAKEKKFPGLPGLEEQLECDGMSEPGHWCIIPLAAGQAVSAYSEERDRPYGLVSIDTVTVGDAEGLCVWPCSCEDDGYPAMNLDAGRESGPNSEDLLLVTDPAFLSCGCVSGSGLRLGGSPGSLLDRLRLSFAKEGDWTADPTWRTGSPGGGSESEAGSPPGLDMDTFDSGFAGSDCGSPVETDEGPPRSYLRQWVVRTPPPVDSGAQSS

Binder | Murine IL-21R-BaF3 Proliferation IC50 [nM]
B1 | 0.03
B2 | 0.065
B3 | 0.302
B4 | 0.04
B5 | 0.153
B6 | 0.184
B7 | 0.093

Target: T3, human IL-21R expressed on cells
Experiment: cell-based or functional assay
Remark: another data set of the same source

Binder | Human IL-21R-BaF3 Proliferation IC50 [nM] | Human IL-21R-TF1 Proliferation IC50 [nM]
B1 | 0.75 | 3.48
B2 | 0.52 | 2.91
B3 | 0.87 | 3.94
B4 | 1.53 | 5
B5 | 0.68 | 4.62
B6 | 0.73 | 3.13
B7 | 0.67 | 3.26

Target: T3, human IL-21R expressed on cells
Experiment: cell-based ELISA on CHO cells transiently expressing human IL-21R; HRP anti-human IgG, A450
Procedure: FIG. 6(a-l) depicts the binding of 21 anti-IL-21R IgGs to CHO cells transiently expressing human IL-21R (FIGS. 6a-c), rat IL-21R (FIGS. 6d-f), cynomolgus monkey IL-21R (FIGS. 6g-i), and human gamma common chain (FIGS. 6j-1). CHO cells were transiently transfected with IL-21R or the control gamma common chain, and binding was detected with HRP-conjugated anti-human IgG in a cell-based ELISA.
as §1

Binder | EC50 (read off the curve) [nM]
B1 | ~1
B8 | ~0.6
B2 | ~0.4
B3 | ~0.5
B5 | ~0.9
B6 | ~2
B7 | ~1
